The values that follow come from the supplement of paper PMC10567573.

B1: KRT18 (parent)
chain: RAQYDELARKNREELDKYWSQQIE
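Also: lentivirally expressed fusions sorted by FACS into six bins by GFP to DsRed ratio, PSI derived from sequencing read proportions per bin multiplied by bin number.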

This data set covers variants of B1. In words: protein stability index of a GFP-peptide fusion (GPS, HEK-293T) (PSI 1-6); higher = more stable. To be noted: c terminus: a fixed tail appended.
For the variant RAQYDELARKNREELDKYWSWQIE, the protein stability index was determined as 3.28.
The value for RAQYDELARKNREELDKYWSPQIE was 4.25.
Turning to RAQYDELARKNREELDKYWSFQIE, the protein stability index came out at 3.62.
In the case of RAQYDELARKNREELDKYWSRQIE, the protein stability index amounted to 3.81.
In the case of RAQYDELARKNREELDKYWSDQIE, the protein stability index was 2.88.
RAQYDELARKNREELDKYWSEQIE: the protein stability index amounted to 2.88.
Regarding RAQYDELARKNREELDKYWSCQIE, the protein stability index came to 4.
The value for RAQYDELARKNREELDKYWSIQIE was 3.05; that for RAQYDELARKNREELDKYWSYQIE was 3.08; that for RAQYDELARKNREELDKYWSKQIE was 3.06.
Then RAQYDELARKNREELDKYWSLQIE, with 2.74; and RAQYDELARKNREELDKYWSVQIE, with 3.17.
Take RAQYDELARKNREELDKYWSGQIE: the protein stability index was 3.58.
Regarding RAQYDELARKNREELDKYWSHQIE, the protein stability index was 3.41.
On to RAQYDELARKNREELDKYWSAQIE, for which the protein stability index was found to be 3.05.
On to RAQYDELARKNREELDKYWSSQIE, for which the protein stability index was 3.4.
Then RAQYDELARKNREELDKYWSTQIE, with 3.76; and RAQYDELARKNREELDKYWSMQIE, with 2.98; and RAQYDELARKNREELDKYWSNQIE, with 3.71.
For RAQYDELARKNREELDKYNSQQIE, the protein stability index worked out at 4.54.
Consider RAQYDELARKNREELDKYGSQQIE, for which the protein stability index was found to be 5.07.
The value for RAQYDELARKNREELDKYYSQQIE was 4.58; that for RAQYDELARKNREELDKYCSQQIE was 4.91; that for RAQYDELARKNREELDKYRSQQIE was 4.71.
With RAQYDELARKNREELDKYISQQIE, the protein stability index was 4.5.
The value for RAQYDELARKNREELDKYHSQQIE was 4.85; that for RAQYDELARKNREELDKYASQQIE was 4.73.
For RAQYDELARKNREELDKYFSQQIE, the protein stability index turned out to be 4.19.
Turning to RAQYDELARKNREELDKYPSQQIE, the protein stability index is 5.03.
In the case of RAQYDELARKNREELDKYDSQQIE, the protein stability index is 4.56.
For RAQYDELARKNREELDKYLSQQIE, the protein stability index worked out at 4.42.
As to RAQYDELARKNREELDKYESQQIE, the protein stability index stood at 5.28.
Consider RAQYDELARKNREELDKYMSQQIE, for which the protein stability index amounted to 5.01.
The value for RAQYDELARKNREELDKYSSQQIE was 4.25; that for RAQYDELARKNREELDKYKSQQIE was 4.41; that for RAQYDELARKNREELDKYTSQQIE was 4.97.
Turning to RAQYDELARKNREELDKYQSQQIE, the protein stability index amounted to 5.13.
As to RAQYDELARKNREELDKYVSQQIE, the protein stability index worked out at 4.68.
For the variant RAQYDELARKNREELDKYWEQQIE, the protein stability index was determined as 4.23.
RAQYDELARKNREELDKYWTQQIE: the protein stability index is 2.79.
As to RAQYDELARKNREELDKYWCQQIE, the protein stability index was 2.63.
Regarding RAQYDELARKNREELDKYWAQQIE, the protein stability index came to 3.15.
Regarding RAQYDELARKNREELDKYWIQQIE, the protein stability index amounted to 2.31.
Take RAQYDELARKNREELDKYWFQQIE: the protein stability index amounted to 3.04.
Take RAQYDELARKNREELDKYWDQQIE: the protein stability index worked out at 4.29.
Consider RAQYDELARKNREELDKYWGQQIE, for which the protein stability index is 3.97.
On to RAQYDELARKNREELDKYWWQQIE, for which the protein stability index was found to be 2.6.
Take RAQYDELARKNREELDKYWMQQIE: the protein stability index was found to be 2.56.
RAQYDELARKNREELDKYWKQQIE: the protein stability index amounted to 1.22.
Turning to RAQYDELARKNREELDKYWVQQIE, the protein stability index is 3.18.
On to RAQYDELARKNREELDKYWPQQIE, for which the protein stability index came out at 3.85.
On to RAQYDELARKNREELDKYWQQQIE, for which the protein stability index was 2.17.
Then RAQYDELARKNREELDKYWLQQIE, with 2.33.
The value for RAQYDELARKNREELDKYWRQQIE was 2.17; that for RAQYDELARKNREELDKYWNQQIE was 2.79; that for RAQYDELARKNREELDKYWYQQIE was 2.79.
As for RAQYDELARKNREELDKYWHQQIE, the protein stability index was found to be 1.59.
For the variant RAQYDELARKNREVLDKYWSQQIE, the protein stability index was determined as 3.62.
For RAQYDELARKNREMLDKYWSQQIE, the protein stability index was found to be 2.92.
In the case of RAQYDELARKNREFLDKYWSQQIE, the protein stability index is 2.5.
The value for RAQYDELARKNREPLDKYWSQQIE was 3.81; that for RAQYDELARKNREILDKYWSQQIE was 2.62.
On to RAQYDELARKNREYLDKYWSQQIE, for which the protein stability index worked out at 3.07.
For RAQYDELARKNREWLDKYWSQQIE, the protein stability index was 3.89.
In the case of RAQYDELARKNREKLDKYWSQQIE, the protein stability index came to 2.94.
RAQYDELARKNREHLDKYWSQQIE: the protein stability index came out at 3.29.
Take RAQYDELARKNRENLDKYWSQQIE: the protein stability index came to 3.04.
Then RAQYDELARKNREGLDKYWSQQIE, with 3.83; and RAQYDELARKNREDLDKYWSQQIE, with 3.94.
For the variant RAQYDELARKNRETLDKYWSQQIE, the protein stability index was determined as 3.56.
Consider RAQYDELARKNRESLDKYWSQQIE, for which the protein stability index is 3.5.
Take RAQYDELARKNRERLDKYWSQQIE: the protein stability index was determined as 2.87.
Take RAQYDELARKNREALDKYWSQQIE: the protein stability index was 3.82.
RAQYDELARKNREQLDKYWSQQIE: the protein stability index came to 3.85.
Take RAQYDELARKNRELLDKYWSQQIE: the protein stability index stood at 2.97.
Take RAQYDELARKNRECLDKYWSQQIE: the protein stability index is 3.42.
As for RAQYDELARKNREELDAYWSQQIE, the protein stability index came to 2.7.
As for RAQYDELARKNREELDQYWSQQIE, the protein stability index worked out at 2.96.
As to RAQYDELARKNREELDWYWSQQIE, the protein stability index came to 3.65.
The value for RAQYDELARKNREELDYYWSQQIE was 3.42; that for RAQYDELARKNREELDTYWSQQIE was 3.21.
Turning to RAQYDELARKNREELDMYWSQQIE, the protein stability index is 3.51.
RAQYDELARKNREELDHYWSQQIE: the protein stability index is 3.14.
In the case of RAQYDELARKNREELDNYWSQQIE, the protein stability index was 3.02.
Then RAQYDELARKNREELDPYWSQQIE, with 4.25; and RAQYDELARKNREELDEYWSQQIE, with 3.94.
The value for RAQYDELARKNREELDSYWSQQIE was 3.67; that for RAQYDELARKNREELDFYWSQQIE was 3.62; that for RAQYDELARKNREELDGYWSQQIE was 3.57.
The value for RAQYDELARKNREELDIYWSQQIE was 3.16; that for RAQYDELARKNREELDRYWSQQIE was 2.56.
With RAQYDELARKNREELDDYWSQQIE, the protein stability index was 4.21.
RAQYDELARKNREELDLYWSQQIE: the protein stability index was 3.14.
With RAQYDELARKNREELDVYWSQQIE, the protein stability index was found to be 3.64.
